Source: publication doi:10.1101/2025.03.31.646301, “Discovery of Tankyrase scaffolding inhibitor specifically targeting the ARC4 peptide binding domain” (bioRxiv, 2025)
Ends that are not written are not given here.

Target: T1, TNKS2 ARC4 fused with mCerulean (CFP) (human, UniProt Q9H2K2 488-649)
T1 construct: Tankyrase 2 (TNKS2), human, ankyrin repeat cluster 4 (ARC4); residues 487-649 are stated only for the crystallised TNKS2 ARC4; Vector pNIC-CFP: mCerulean inserted between the 6xHis-tag and the TEV site of pNIC28-Bsa4; the label reads CFP first, so the tags are probably N-terminal; also called CFP-TNKS2 ARC4; source: E. coli BL21(DE3), purified (IMAC, SEC)
T1 sequence: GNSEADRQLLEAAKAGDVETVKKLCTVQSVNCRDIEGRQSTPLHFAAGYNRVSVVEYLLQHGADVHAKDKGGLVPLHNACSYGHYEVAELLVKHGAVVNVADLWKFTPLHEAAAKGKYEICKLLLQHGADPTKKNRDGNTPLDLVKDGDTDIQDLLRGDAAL
Assay: FRET or BRET; ratiometric FRET in solution: CFP-TNKS1/2 ARC 100 nM and YFP-REAGDGEE 200 nM, 10 mM Bis-Tris Propane pH 7, 3% PEG 20000, 0.01% Triton X-100, 0.5 mM TCEP; small-molecule compounds added (screen at 30 uM, dose response); 1 M guanidine hydrochloride as control of total inhibition
Settings: both partners purified

B1: 8-residues peptide optimized for the binding of ARCs (REAGDGEE) fused with mCitrine (YFP) (peptide)
chain: REAGDGEE
modifications: also: fused with mCitrine (YFP)
notes: Vector pNIC-YFP: mCitrine inserted between the 6xHis-tag and the TEV site of pNIC28-Bsa4; the label reads YFP first, so the peptide probably stands at the C-terminal end of the fusion; also called optimized peptide; source: E. coli BL21(DE3), purified (IMAC, SEC)
binding result: binds
